Test: Radio-HPLC stability/oxidation of drug product with and without excipients
Assay type: physicochemical
Procedure: DOTAM-GRPR1 (C77H119N23O17, Fig. 1) was manufactured by Macrocyclics using Fmoc solid-phase peptide synthesis. The peptide was isolated via reverse-phase high-performance liquid chromatography. Chelation was achieved by adding ^212Pb in ammonium acetate (Sigma-Aldrich) to DOTAM-GRPR1 alone or in the presence of 5% ethanol (Spectrum Chemical), up to 30 mM ascorbic acid (Honeywell), and 0.02% polysorbate 80 (J.T. Baker). Experiments were conducted for 10 min at either room temperature or 50°C.
Fractions were collected from the column every 6–10 s for up to 10 min and then analyzed for radiometric detection using an automatic γ-counter (Perkin Elmer Wizard^2 2470).
FIGURE 4. Radio–high-performance liquid chromatography showing optimized formulation conditions compared with no excipients added to chelation reaction. When chelation occurs with just ^212Pb and peptide, oxidation is visible at time of 0 h with percent main peak of 91% (A), which becomes unquantifiable at time of 24 h (B). However, with addition of ethanol, ascorbic acid, and polysorbate 80, percent main peak is 96% at time of 0 h (C) and remains high at 94% after 24 h (D). CPM = counts per minute; N/A = not applicable; T = time. […]

**Q.** Which “Stability in optimized chelation formulation” value does the source give for `CC(C)C[C@H](NC(=O)C[C@H](O)[C@H](CC(C)C)NC(=O)[C@H](Cc1c[nH]cn1)NC(=O)CNC(=O)[C@@H](NC(=O)[C@H](C)NC(=O)[C@H](Cc1c[nH]c2ccccc12)NC(=O)[C@H](CCC(N)=O)NC(=O)[C@@H](Cc1ccccc1)NC(=O)CCNC(=O)CCNC(=O)CN1CCN(CC(N)=O)CCN(CC(N)=O)CCN(CC(N)=O)CC1)C(C)C)C(N)=O` [[^212Pb]Pb-DOTAM-GRPR1, metal not drawn] here?
**A.** increased the stability of the drug well beyond 24 h

Source: publication PMC11533912 (Journal of Nuclear Medicine, 2024)
